The supplement of paper PMC9112550, “Optimization of the antimicrobial peptide Bac7 by deep mutational scanning” (BMC Biology, 2022)

System: Escherichia coli TOP10
Experiment: shrunken log2 fold change of peptide-encoding DNA abundance (4.5 h post-induction vs induction); higher = less antimicrobial activity (less host growth inhibition)
Settings: time post-induction: 4.5 h; library: site-saturation at positions 5, 18, 19, 20
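Note: peptides expressed intracellularly from a pBAD plasmid library in pooled LB shake-flask culture, induced with 0.3% L-arabinose, DNA abundance read by NGS, three biological replicates, DESeq2 with apeglm shrinkage.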

Sequence: RRIRARPPRLPRPRPRPHTKPRP
- shrunken log2 fold change: 0.0902

Sequence: RRIRARPPRLPRPRPRPHVFPRP
- shrunken log2 fold change: 0.0326

Sequence: RRIRARPPRLPRPRPRPHWGPRP
- shrunken log2 fold change: 0.119

Sequence: RRIRARPPRLPRPRPRPHWPPRP
- shrunken log2 fold change: 0.233

Sequence: RRIRARPPRLPRPRPRPHWTPRP
- shrunken log2 fold change: -0.0108

Sequence: RRIRARPPRLPRPRPRPHYLPRP
- shrunken log2 fold change: -0.503

Sequence: RRIRARPPRLPRPRPRPHYPPRP
- shrunken log2 fold change: -1.36

Sequence: RRIRARPPRLPRPRPRPIEDPRP
- shrunken log2 fold change: -0.0663

Sequence: RRIRARPPRLPRPRPRPIFEPRP
- shrunken log2 fold change: 0.125

Sequence: RRIRARPPRLPRPRPRPIFGPRP
- shrunken log2 fold change: 0.0662

Sequence: RRIRARPPRLPRPRPRPIFLPRP
- shrunken log2 fold change: -0.0119

Sequence: RRIRARPPRLPRPRPRPIGKPRP
- shrunken log2 fold change: -0.00841

Sequence: RRIRARPPRLPRPRPRPIHAPRP
- shrunken log2 fold change: 0.0915

Sequence: RRIRARPPRLPRPRPRPIIQPRP
- shrunken log2 fold change: -0.206

Sequence: RRIRARPPRLPRPRPRPIKDPRP
- shrunken log2 fold change: 0.0786

Sequence: RRIRARPPRLPRPRPRPILLPRP
- shrunken log2 fold change: -0.293

Sequence: RRIRARPPRLPRPRPRPIMEPRP
- shrunken log2 fold change: 0.0783

Sequence: RRIRARPPRLPRPRPRPIMTPRP
- shrunken log2 fold change: 0.0421

Sequence: RRIRARPPRLPRPRPRPINQPRP
- shrunken log2 fold change: -0.195

Sequence: RRIRARPPRLPRPRPRPIPEPRP
- shrunken log2 fold change: 0.0265

Sequence: RRIRARPPRLPRPRPRPIPQPRP
- shrunken log2 fold change: -0.0224

Sequence: RRIRARPPRLPRPRPRPIPTPRP
- shrunken log2 fold change: -0.0942

Sequence: RRIRARPPRLPRPRPRPIQDPRP
- shrunken log2 fold change: 0.0826

Sequence: RRIRARPPRLPRPRPRPIRLPRP
- shrunken log2 fold change: -0.0928

Sequence: RRIRARPPRLPRPRPRPIRQPRP
- shrunken log2 fold change: -0.00194

Sequence: RRIRARPPRLPRPRPRPIRWPRP
- shrunken log2 fold change: 0.211

Sequence: RRIRARPPRLPRPRPRPISMPRP
- shrunken log2 fold change: 0.0208

Sequence: RRIRARPPRLPRPRPRPITIPRP
- shrunken log2 fold change: 0.222

Sequence: RRIRARPPRLPRPRPRPITQPRP
- shrunken log2 fold change: -0.0161

Sequence: RRIRARPPRLPRPRPRPIVNPRP
- shrunken log2 fold change: -0.178

Sequence: RRIRARPPRLPRPRPRPIVQPRP
- shrunken log2 fold change: 0.0602

Sequence: RRIRARPPRLPRPRPRPIWIPRP
- shrunken log2 fold change: 0.123

Sequence: RRIRARPPRLPRPRPRPIWNPRP
- shrunken log2 fold change: -0.0575

Sequence: RRIRARPPRLPRPRPRPIYGPRP
- shrunken log2 fold change: 0.0455

Sequence: RRIRARPPRLPRPRPRPKAHPRP
- shrunken log2 fold change: 0.491

Sequence: RRIRARPPRLPRPRPRPKCKPRP
- shrunken log2 fold change: 0.278

Sequence: RRIRARPPRLPRPRPRPKCNPRP
- shrunken log2 fold change: 0.0681

Sequence: RRIRARPPRLPRPRPRPKCSPRP
- shrunken log2 fold change: 0.0215

Sequence: RRIRARPPRLPRPRPRPKDHPRP
- shrunken log2 fold change: 0.175

Sequence: RRIRARPPRLPRPRPRPKETPRP
- shrunken log2 fold change: 0.229

Sequence: RRIRARPPRLPRPRPRPKGRPRP
- shrunken log2 fold change: 0.368

Sequence: RRIRARPPRLPRPRPRPKHRPRP
- shrunken log2 fold change: 0.556

Sequence: RRIRARPPRLPRPRPRPKIEPRP
- shrunken log2 fold change: 0.173

Sequence: RRIRARPPRLPRPRPRPKIFPRP
- shrunken log2 fold change: -0.0226

Sequence: RRIRARPPRLPRPRPRPKLGPRP
- shrunken log2 fold change: 0.023

Sequence: RRIRARPPRLPRPRPRPKMQPRP
- shrunken log2 fold change: 0.32

Sequence: RRIRARPPRLPRPRPRPKMTPRP
- shrunken log2 fold change: 0.365

Sequence: RRIRARPPRLPRPRPRPKNRPRP
- shrunken log2 fold change: 0.134

Sequence: RRIRARPPRLPRPRPRPKNVPRP
- shrunken log2 fold change: 0.166

Sequence: RRIRARPPRLPRPRPRPKPAPRP
- shrunken log2 fold change: 0.711

Sequence: RRIRARPPRLPRPRPRPKQDPRP
- shrunken log2 fold change: 0.734

Sequence: RRIRARPPRLPRPRPRPKTHPRP
- shrunken log2 fold change: 0.227

Sequence: RRIRARPPRLPRPRPRPKTLPRP
- shrunken log2 fold change: 0.343

Sequence: RRIRARPPRLPRPRPRPKTTPRP
- shrunken log2 fold change: 0.0562

Sequence: RRIRARPPRLPRPRPRPKVCPRP
- shrunken log2 fold change: -0.132

Sequence: RRIRARPPRLPRPRPRPKVPPRP
- shrunken log2 fold change: 0.412

Sequence: RRIRARPPRLPRPRPRPKYKPRP
- shrunken log2 fold change: -0.31

Sequence: RRIRARPPRLPRPRPRPKYWPRP
- shrunken log2 fold change: 0.233

Sequence: RRIRARPPRLPRPRPRPLASPRP
- shrunken log2 fold change: 0.841

Sequence: RRIRARPPRLPRPRPRPLDFPRP
- shrunken log2 fold change: 0.173

Sequence: RRIRARPPRLPRPRPRPLDKPRP
- shrunken log2 fold change: 0.332

Sequence: RRIRARPPRLPRPRPRPLDNPRP
- shrunken log2 fold change: 0.151

Sequence: RRIRARPPRLPRPRPRPLEWPRP
- shrunken log2 fold change: -0.0062

Sequence: RRIRARPPRLPRPRPRPLFQPRP
- shrunken log2 fold change: 0.0426

Sequence: RRIRARPPRLPRPRPRPLGAPRP
- shrunken log2 fold change: 0.726

Sequence: RRIRARPPRLPRPRPRPLGPPRP
- shrunken log2 fold change: 0.337

Sequence: RRIRARPPRLPRPRPRPLIRPRP
- shrunken log2 fold change: -0.0546

Sequence: RRIRARPPRLPRPRPRPLKWPRP
- shrunken log2 fold change: 0.218

Sequence: RRIRARPPRLPRPRPRPLMLPRP
- shrunken log2 fold change: 0.32

Sequence: RRIRARPPRLPRPRPRPLMMPRP
- shrunken log2 fold change: 0.205

Sequence: RRIRARPPRLPRPRPRPLMQPRP
- shrunken log2 fold change: 0.223

Sequence: RRIRARPPRLPRPRPRPLMSPRP
- shrunken log2 fold change: 0.302

Sequence: RRIRARPPRLPRPRPRPLMTPRP
- shrunken log2 fold change: 0.474

Sequence: RRIRARPPRLPRPRPRPLNKPRP
- shrunken log2 fold change: 0.028

Sequence: RRIRARPPRLPRPRPRPLRGPRP
- shrunken log2 fold change: 0.954

Sequence: RRIRARPPRLPRPRPRPLRVPRP
- shrunken log2 fold change: 3.15

Sequence: RRIRARPPRLPRPRPRPLTYPRP
- shrunken log2 fold change: 0.0247

Sequence: RRIRARPPRLPRPRPRPLVIPRP
- shrunken log2 fold change: -0.152

Sequence: RRIRARPPRLPRPRPRPLWYPRP
- shrunken log2 fold change: -0.278

Sequence: RRIRARPPRLPRPRPRPLYIPRP
- shrunken log2 fold change: -0.293

Sequence: RRIRARPPRLPRPRPRPMACPRP
- shrunken log2 fold change: 0.879

Sequence: RRIRARPPRLPRPRPRPMARPRP
- shrunken log2 fold change: -0.132

Sequence: RRIRARPPRLPRPRPRPMDGPRP
- shrunken log2 fold change: 0.211

Sequence: RRIRARPPRLPRPRPRPMDVPRP
- shrunken log2 fold change: 0.241

Sequence: RRIRARPPRLPRPRPRPMEYPRP
- shrunken log2 fold change: -0.154

Sequence: RRIRARPPRLPRPRPRPMFDPRP
- shrunken log2 fold change: -0.101

Sequence: RRIRARPPRLPRPRPRPMFGPRP
- shrunken log2 fold change: 0.215

Sequence: RRIRARPPRLPRPRPRPMFLPRP
- shrunken log2 fold change: 0.00213

Sequence: RRIRARPPRLPRPRPRPMFNPRP
- shrunken log2 fold change: -0.132

Sequence: RRIRARPPRLPRPRPRPMFPPRP
- shrunken log2 fold change: -0.147

Sequence: RRIRARPPRLPRPRPRPMGIPRP
- shrunken log2 fold change: -0.00146

Sequence: RRIRARPPRLPRPRPRPMGMPRP
- shrunken log2 fold change: 0.211

Sequence: RRIRARPPRLPRPRPRPMGQPRP
- shrunken log2 fold change: 0.229

Sequence: RRIRARPPRLPRPRPRPMHMPRP
- shrunken log2 fold change: -0.0568

Sequence: RRIRARPPRLPRPRPRPMICPRP
- shrunken log2 fold change: 0.0985

Sequence: RRIRARPPRLPRPRPRPMIKPRP
- shrunken log2 fold change: 0.148

Sequence: RRIRARPPRLPRPRPRPMKMPRP
- shrunken log2 fold change: 0.0994

Sequence: RRIRARPPRLPRPRPRPMLGPRP
- shrunken log2 fold change: 0.211

Sequence: RRIRARPPRLPRPRPRPMMPPRP
- shrunken log2 fold change: 0.307

Sequence: RRIRARPPRLPRPRPRPMMVPRP
- shrunken log2 fold change: 0.212

Sequence: RRIRARPPRLPRPRPRPMPKPRP
- shrunken log2 fold change: 0.411

Sequence: RRIRARPPRLPRPRPRPMQLPRP
- shrunken log2 fold change: 0.206

Sequence: RRIRARPPRLPRPRPRPMQSPRP
- shrunken log2 fold change: 0.43

Sequence: RRIRARPPRLPRPRPRPMRKPRP
- shrunken log2 fold change: -0.046

Sequence: RRIRARPPRLPRPRPRPMRRPRP
- shrunken log2 fold change: 0.2

Sequence: RRIRARPPRLPRPRPRPMRYPRP
- shrunken log2 fold change: -0.179

Sequence: RRIRARPPRLPRPRPRPMSGPRP
- shrunken log2 fold change: 0.0632

Sequence: RRIRARPPRLPRPRPRPMSYPRP
- shrunken log2 fold change: 0.163

Sequence: RRIRARPPRLPRPRPRPMTIPRP
- shrunken log2 fold change: -0.113

Sequence: RRIRARPPRLPRPRPRPMTVPRP
- shrunken log2 fold change: -0.0938

Sequence: RRIRARPPRLPRPRPRPMWWPRP
- shrunken log2 fold change: 0.166

Sequence: RRIRARPPRLPRPRPRPMWYPRP
- shrunken log2 fold change: -0.0479

Sequence: RRIRARPPRLPRPRPRPMYNPRP
- shrunken log2 fold change: -0.48

Sequence: RRIRARPPRLPRPRPRPNCFPRP
- shrunken log2 fold change: 0.0761

Sequence: RRIRARPPRLPRPRPRPNCQPRP
- shrunken log2 fold change: 0.267

Sequence: RRIRARPPRLPRPRPRPNDNPRP
- shrunken log2 fold change: -0.344

Sequence: RRIRARPPRLPRPRPRPNEHPRP
- shrunken log2 fold change: 0.0215

Sequence: RRIRARPPRLPRPRPRPNGHPRP
- shrunken log2 fold change: 0.53

Sequence: RRIRARPPRLPRPRPRPNGRPRP
- shrunken log2 fold change: -0.11

Sequence: RRIRARPPRLPRPRPRPNHNPRP
- shrunken log2 fold change: -0.542

Sequence: RRIRARPPRLPRPRPRPNIIPRP
- shrunken log2 fold change: -0.248

Sequence: RRIRARPPRLPRPRPRPNIKPRP
- shrunken log2 fold change: -0.14

Sequence: RRIRARPPRLPRPRPRPNILPRP
- shrunken log2 fold change: -0.00643

Sequence: RRIRARPPRLPRPRPRPNMQPRP
- shrunken log2 fold change: 0.18

Sequence: RRIRARPPRLPRPRPRPNNTPRP
- shrunken log2 fold change: -0.423

Sequence: RRIRARPPRLPRPRPRPNPRPRP
- shrunken log2 fold change: 0.722

Sequence: RRIRARPPRLPRPRPRPNPSPRP
- shrunken log2 fold change: 0.262

Sequence: RRIRARPPRLPRPRPRPNPVPRP
- shrunken log2 fold change: 0.0917

Sequence: RRIRARPPRLPRPRPRPNSFPRP
- shrunken log2 fold change: -0.232

Sequence: RRIRARPPRLPRPRPRPNVMPRP
- shrunken log2 fold change: 0.153

Sequence: RRIRARPPRLPRPRPRPNVNPRP
- shrunken log2 fold change: -0.0484

Sequence: RRIRARPPRLPRPRPRPNWAPRP
- shrunken log2 fold change: 0.27

Sequence: RRIRARPPRLPRPRPRPNWEPRP
- shrunken log2 fold change: -0.0132

Sequence: RRIRARPPRLPRPRPRPNWFPRP
- shrunken log2 fold change: 0.0236

Sequence: RRIRARPPRLPRPRPRPNWPPRP
- shrunken log2 fold change: 0.0205

Sequence: RRIRARPPRLPRPRPRPPAGPRP
- shrunken log2 fold change: 0.883

Sequence: RRIRARPPRLPRPRPRPPCWPRP
- shrunken log2 fold change: 0.967

Sequence: RRIRARPPRLPRPRPRPPDEPRP
- shrunken log2 fold change: 0.338

Sequence: RRIRARPPRLPRPRPRPPDLPRP
- shrunken log2 fold change: 0.829

Sequence: RRIRARPPRLPRPRPRPPDYPRP
- shrunken log2 fold change: 0.406

Sequence: RRIRARPPRLPRPRPRPPEAPRP
- shrunken log2 fold change: 0.699

Sequence: RRIRARPPRLPRPRPRPPEVPRP
- shrunken log2 fold change: 1.17

Sequence: RRIRARPPRLPRPRPRPPGGPRP
- shrunken log2 fold change: 0.864

Sequence: RRIRARPPRLPRPRPRPPGLPRP
- shrunken log2 fold change: 0.517

Sequence: RRIRARPPRLPRPRPRPPGNPRP
- shrunken log2 fold change: 0.574

Sequence: RRIRARPPRLPRPRPRPPHDPRP
- shrunken log2 fold change: 1.02

Sequence: RRIRARPPRLPRPRPRPPHHPRP
- shrunken log2 fold change: 0.675

Sequence: RRIRARPPRLPRPRPRPPKEPRP
- shrunken log2 fold change: 0.818

Sequence: RRIRARPPRLPRPRPRPPLAPRP
- shrunken log2 fold change: 0.861

Sequence: RRIRARPPRLPRPRPRPPLDPRP
- shrunken log2 fold change: 1
